Results reported in article PMC4720616, “Influence of tumour size on the efficacy of targeted alpha therapy with ^213Bi-[DOTA^0,Tyr^3]-octreotate” (EJNMMI Research, 2016).

Legend:
[1] = system: kidney; conditions: mouse, in vivo
[2] = in the absence of L-lysine; ref manuscript in preparation; cited from earlier work
Text: In patients, the maximum tolerated dose in kidney is postulated to b ...

[3] = system: H69 tumour-bearing mice; experiment: in vivo; design: species or system BALB/c (nu/nu) nude mice; conditions: mouse, iv
Protocol: (§1) When tumour volumes reached ~120 mm^3, animals were divided into five groups with seven animals in each group for both H69 and CA20948 tumour-bearing animals. […] At 10, 30, 60 and 120 min post injection (p.i.), animals in the four groups were euthanized and tissues and organs of interest (including tumour, kidney, pancreas, spleen, liver, muscle, blood, femur, femur marrow and adrenals) were collected and counted using a gamma counter (Wallac Wizard 3, PerkinElmer, USA). […] The animals of the control group were euthanized 60 min p.i.; tissues and organs of interest were harvested and counted using a gamma counter. Data was expressed in mean percentage of total injected radioactivity per gram tissue (%IA/g) ± SD.

[4] = in vivo; design: species or system BALB/c (nu/nu) nude mice; conditions: BALB/c (nu/nu) nude, mouse, iv, total radioactivity
Protocol: as §1

[5] = system: CA20948 tumour-bearing mice; experiment: in vivo; design: species or system BALB/c (nu/nu) nude mice; conditions: mouse, iv
Protocol: as §1

[6] = system: H69 (human small cell lung carcinoma) tumours; experiment: Targeted alpha therapy: tumour growth and survival, H69 tumours; assay type: in vivo, human tumour cells in BALB/c (nu/nu) nude mice; conditions: for Mean time to reach a tumour volume of 2000 mm^3: i.v. 2–4 MBq/0.3 nmol ^213Bi-DOTATATE or 0.3 nmol unlabelled DOTATATE (control) on three consecutive days, mean ± SD; for Median survival: follow-up 90 days after treatment
Protocol: (§2) All animal studies were in agreement with the Animal Welfare Committee requirements of Erasmus MC and conducted in accordance with accepted guidelines. Male 6–8-week-old BALB/c (nu/nu) nude mice were obtained from Charles River (Kißlegg, Germany). Subcutaneous tumours were established in mice by inoculation of approximately 5 × 10^6 cells (CA20948 or H69), suspended in 200 μL sterile culture medium Hanks’ balanced salt solution (HBSS) in the case of CA20948 cells. Three days after inoculation of CA20948 cells, a tumour with a tumour size ~50 mm^3 (used for the “smaller” tumour-size group) was reached, and 2 weeks after inoculation, a tumour size ~200 mm^3 (used for the “larger” tumour-size group) was reached. For H69 cells, 200 μL, containing 1/3 Matrigel and 2/3 HBSS medium (Gibco, Life Technologies), was used. The cells were injected subcutaneously (s.c.) into the right flank of the mice. One week after inoculation of tumour cells, tumours with a volume of ~50 mm^3 (used for the smaller tumour-size group) could be detected, and after 3 weeks, tumour volumes reached ~200 mm^3 (used for the larger tumour-size group). Tumour volumes were estimated using a calliper.
(§3) Tumour cells were inoculated into the right flank of the mice, and the tumours were allowed to grow until tumour volumes of approximately 50 and 200 mm^3 were reached, respectively. […] The control group (H69-bearing animals: small tumour n = 10, large tumour n = 9; CA20948-bearing animals: small tumour n = 5, large tumour n = 5) received i.v. via the tail vein three times 0.3 nmol/200 μL of unlabelled DOTATATE for three consecutive days.
(§4) All animals were followed for 90 days after treatment. The behaviour and the health status of the animals were observed daily, and the weight of the animals and the tumour volumes were monitored twice a week.

[7] = system: CA20948 (rat pancreatic tumour) tumours; experiment: Targeted alpha therapy: tumour growth and survival, CA20948 tumours; assay type: in vivo, rat tumour cells in BALB/c (nu/nu) nude mice; conditions: for Mean time to reach a tumour volume of 2000 mm^3: i.v. 2–4 MBq/0.3 nmol ^213Bi-DOTATATE or 0.3 nmol unlabelled DOTATATE (control) on three consecutive days, mean ± SD; for Median survival: follow-up 90 days after treatment
Protocol: as §2, §3, §4

[8] = 3.8 MBq/0.3 nmol/200 uL, Uptake, Adrenal
[9] = 3.8 MBq/0.3 nmol/200 uL, Uptake, Blood
[10] = 3.8 MBq/0.3 nmol/200 uL, Uptake, Femur
[11] = 3.8 MBq/0.3 nmol/200 uL, Uptake, Kidney
[12] = 3.8 MBq/0.3 nmol/200 uL, Uptake, Liver
[13] = 3.8 MBq/0.3 nmol/200 uL, Uptake, Muscle
[14] = 3.8 MBq/0.3 nmol/200 uL, Uptake, Tumour
[15] = H69 small tumours, after treatment

C[C@@H](O)[C@H](NC(=O)[C@@H]1CSSC[C@H](NC(=O)[C@@H](Cc2ccccc2)NC(=O)CN2CCN(CC(=O)O)CCN(CC(=O)O)CCN(CC(=O)O)CC2)C(=O)N[C@@H](Cc2ccc(O)cc2)C(=O)N[C@H](Cc2c[nH]c3ccccc23)C(=O)N[C@@H](CCCCN)C(=O)N[C@@H]([C@@H](C)O)C(=O)N1)C(=O)O [^213Bi-DOTATATE, ^213Bi-[DOTA^0, Tyr^3]-octreotate, metal not drawn]
Kidney histology, control vs treated animals [1]: no significant differences were observed
Maximum tolerated activity [2]: < 13.1 ± 1.2 MBq
Blood clearance T1/2 [3]: 11 ± 2 min
Tumour clearance T1/2 [3]: 2.3 ± 1.1 h
Tumour uptake T1/2 [3]: 7 ± 2 min
tissue uptake at 10 min ([4]; 2.1 MBq/0.3 nmol/200 uL, Uptake, Kidney): 51.5 ± 16.6 %ID/g
tissue uptake at 2 h ([4]; 2.1 MBq/0.3 nmol/200 uL, Uptakes in other organs (other than tumour and kidney)): < 2 %ID/g
tissue uptake at 2 h ([4]; 3.8 MBq/0.3 nmol/200 uL, Uptake in all other organs (other than tumour and kidney)): < 2 %ID/g
tissue uptake at 0.5 h [4, 8]: 2 ± 0.6 %ID/g
tissue uptake at 1 h [4, 8]: 0.9 ± 0.4 %ID/g
tissue uptake at 2 h [4, 8]: 0.7 ± 0.4 %ID/g
tissue uptake at 10 min [4, 9]: 8.1 ± 1.8 %ID/g
tissue uptake at 0.5 h [4, 9]: 2.3 ± 1.1 %ID/g
tissue uptake at 1 h [4, 9]: 0.6 ± 0.2 %ID/g
tissue uptake at 2 h [4, 9]: 0.1 ± 0.06 %ID/g
tissue uptake at 0.5 h [4, 10]: 1.5 ± 0.4 %ID/g
tissue uptake at 1 h [4, 10]: 1 ± 0.5 %ID/g
tissue uptake at 2 h [4, 10]: 0.4 ± 0.4 %ID/g
tissue uptake at 10 min [4, 11]: 44 ± 9.6 %ID/g
tissue uptake at 0.5 h [4, 11]: 28.5 ± 3.7 %ID/g
tissue uptake at 1 h [4, 11]: 26.2 ± 2.6 %ID/g
tissue uptake at 2 h [4, 11]: 25 ± 3.8 %ID/g
tissue uptake at 0.5 h [4, 12]: 0.9 ± 0.09 %ID/g
tissue uptake at 1 h [4, 12]: 0.4 ± 0.06 %ID/g
tissue uptake at 2 h [4, 12]: 0.3 ± 0.05 %ID/g
tissue uptake at 0.5 h [4, 13]: 1.1 ± 0.2 %ID/g
tissue uptake at 1 h [4, 13]: 1 ± 1.4 %ID/g
tissue uptake at 2 h [4, 13]: 0.5 ± 0.4 %ID/g
tissue uptake at 10 min ([4]; 3.8 MBq/0.3 nmol/200 uL, Uptake, Pancreas): 3.2 ± 0.3 %ID/g
tissue uptake at 10 min [4, 14]: 7.5 ± 2.2 %ID/g
tissue uptake at 0.5 h [4, 14]: 9.8 ± 2.4 %ID/g
tissue uptake at 1 h [4, 14]: 9.8 ± 2.3 %ID/g
tissue uptake at 2 h [4, 14]: 6.8 ± 3.2 %ID/g
Blood clearance T1/2 [5]: 14 ± 1 min
Renal clearance T1/2 [5]: 10 ± 3 min
Tumour clearance T1/2 [5]: 2.2 ± 0.9 h
Tumour response ([6]; H69 large tumours): partial response
Mean time to reach a tumour volume of 2000 mm^3 ([6]; H69 large tumours (~200 mm^3)): 110 ± 19 days
Effect on tumour volume ([6]; H69 large tumours, cumulative injected activity 9.4 ± 0.7 MBq): Shrinkage of tumours was observed
Median survival ([6]; H69 large tumours): > 90 days
Mean time to reach a tumour volume of 2000 mm^3 ([6]; H69 small tumours (~50 mm^3)): 102 ± 19 days
Animals with partial response [6, 15]: eight
Animals with stable disease [6, 15]: two
Animals with no tumour regrowth until the end of the study at day 90 ([6]; H69 small tumours, n = 10 treated): two
Median survival ([6]; H69 small tumours): > 90 days
Tumour response ([7]; CA20948 large tumours): partial response
Mean time to reach a tumour volume of 2000 mm^3 ([7]; CA20948 large tumours (~200 mm^3)): 77 ± 25 days
Median survival ([7]; CA20948 large tumours): 70 days
Mean time to reach a tumour volume of 2000 mm^3 ([7]; CA20948 small tumours (~50 mm^3)): 76 ± 15 days
Animals with stable disease till the end of the study ([7]; CA20948 small tumours, after therapy): one
Animals with no tumour regrowth ([7]; CA20948 small tumours, n = 8 treated): one
Median survival ([7]; CA20948 small tumours): > 90 days
